Reference: US7642239B2, “Inhibition of placenta growth factor (PLGF) mediated metastasis and/or angiogenesis” (Center for Molecular Medicine and Immunology, priority 2005, dated 2010)
Marks after values point to notes of the source that are not given here.

How the values were obtained:
PlGF = molecular target: T1, PlGF (Homo sapiens, UniProt P49763); assay: Free peptide binding ELISA (FLAG epitope probe), PlGF-coated wells; conditions: free peptide; BP3, BP4, BP3scr at up to 50 μM
T1 construct: purchased R&D Systems
T1 sequence (P49763 19-170 isoform P49763-3 limits assumed): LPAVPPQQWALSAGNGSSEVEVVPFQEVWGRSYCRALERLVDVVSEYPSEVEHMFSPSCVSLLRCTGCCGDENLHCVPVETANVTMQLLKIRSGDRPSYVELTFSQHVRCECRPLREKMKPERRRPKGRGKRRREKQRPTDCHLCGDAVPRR
Method: (§1) Competition assays were done with 2.5 or 25 U/ml heparin (Sigma, St. Louis, Mo.). BP1, 3, 4, and a scrambled version of BP3 (scrBP3) were synthesized with a linker followed by the FLAG epitope ([…] SEQ ID NO:5) at the C-terminus. Thirty minutes after addition of the first reagent, the second reagent was added, followed by another 30 minute incubation. Peptide binding was assessed by probing for the FLAG epitope (Prickett et al., Biotechniques 7:580-9, 1989; Castrucci et al., J. Virol. 66:4647-53, 1992). Absorbance was read at 490 nm.

[1] = system: MDA-MB-231 human breast cancer cells; assay: MTT tumor cell viability assay, MDA-MB-231; type: cell-based; conditions: 24 h
Method: (§2) MTT (3-(4,5-dimethylthiazolyl-2)-2,5-diphenyltetrazolium bromide, Sigma) assays were performed under conditions of low serum (1%) to determine PlGF effects on cell viability, the toxicity of the peptides, and their effect on PlGF-mediated breast tumor cell growth (Mosmann, 1983, J Immunol Meth 65:55-63; Modrak et al., 2000, Biochem Biophys Res Commun 268:603-606). Peptide concentration was 1-2 μM, and the concentration of exogenous PlGF was 2 nM. The human breast tumor lines tested were: MDA-MB-231, MDA-MB-468 and MCF-7 (ATCC, Mannasses, Va.). Briefly, 96-well plates were seeded with 5-10×10^4 cells/ml in medium containing 1% fetal bovine serum (FBS). After 24 h, cells were treated with individual peptides at a concentration of 1-2 μM (4 binding peptides), in quadruplicate, and/or rhuPlGF at a 2-nM concentration. After the designated time points, 0.5 mg/ml MTT (5 mg/ml stock diluted 1:10 in RPMI medium with no serum) was added to the wells (Mosmann, 1983). When purple crystals were clearly visible in the cells, and the plate appeared to be fully developed, the reaction was terminated with acid alcohol (0.04M HCl in isopropanol). Absorbance of the dissolved crystals was read at 570 nm. The 24-h time point was chosen because the in vitro effects of PlGF on tumor cell migration were measurable at this time (see wound-healing assay below). […]

[2] = molecular target: T2, recombinant human Flt-1 fusion protein (Homo sapiens, UniProt P17948); assay: Free peptide binding and competition ELISA, Flt-1-coated wells; conditions: free peptide
T2 construct: purchased R & D Systems
T2 sequence (P17948 with tags, fused parts or gaps limits assumed): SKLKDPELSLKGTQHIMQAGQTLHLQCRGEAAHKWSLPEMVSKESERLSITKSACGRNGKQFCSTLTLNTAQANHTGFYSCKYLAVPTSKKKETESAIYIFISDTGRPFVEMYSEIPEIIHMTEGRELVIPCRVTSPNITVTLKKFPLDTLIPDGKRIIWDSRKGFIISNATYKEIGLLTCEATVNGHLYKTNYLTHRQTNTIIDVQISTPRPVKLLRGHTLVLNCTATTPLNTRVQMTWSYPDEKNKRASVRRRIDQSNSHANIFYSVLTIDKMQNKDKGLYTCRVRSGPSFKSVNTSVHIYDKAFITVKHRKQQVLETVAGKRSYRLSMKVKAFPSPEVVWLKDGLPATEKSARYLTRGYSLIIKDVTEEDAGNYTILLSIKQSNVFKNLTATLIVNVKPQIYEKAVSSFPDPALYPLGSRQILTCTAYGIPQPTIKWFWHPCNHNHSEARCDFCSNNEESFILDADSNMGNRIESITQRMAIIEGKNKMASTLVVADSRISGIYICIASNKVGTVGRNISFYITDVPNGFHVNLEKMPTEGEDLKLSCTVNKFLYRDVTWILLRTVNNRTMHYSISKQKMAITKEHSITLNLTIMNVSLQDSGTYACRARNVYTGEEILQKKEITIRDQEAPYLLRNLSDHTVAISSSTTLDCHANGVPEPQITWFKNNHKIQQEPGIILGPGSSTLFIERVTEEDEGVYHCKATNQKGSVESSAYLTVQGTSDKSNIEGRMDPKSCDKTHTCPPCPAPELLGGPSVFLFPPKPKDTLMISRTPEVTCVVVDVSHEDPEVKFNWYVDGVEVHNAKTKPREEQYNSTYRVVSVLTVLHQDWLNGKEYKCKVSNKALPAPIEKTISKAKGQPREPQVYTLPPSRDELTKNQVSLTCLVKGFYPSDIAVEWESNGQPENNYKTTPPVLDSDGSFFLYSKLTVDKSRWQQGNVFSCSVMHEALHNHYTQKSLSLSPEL
Method: as §1

[3] = system: PlGF-mediated angiogenesis in corneal tissues; assay: Mouse corneal micropocket angiogenesis assay; type: in vivo, C57B16/J mice; conditions: day 5; for effect on PlGF mediated angiogenesis in corneal tissues: micropellets, 100 ng PlGF with 1 μM peptide
Method: The ability of PlGF ligands to block PlGF-mediated angiogenesis in corneal tissues in vivo is investigated. Corneal micropockets are created using a modified von Graefe cataract knife in both eyes of male 5-6-wk-old C57B16/J mice. Micropellets comprised of a sustained release formulation of polyglucuronic acid/polylactic acid containing 100 ng of PlGF or PlGF with 1 μM BP-1, BP-2, BP-3 or BP-4 are implanted into each corneal pocket. Eyes are examined by a slit-lamp biomicroscope on day 5 after pellet implantation. Vessel length and neovascularization are measured.

MDA-MB-468 xenografts = type: in vivo, mice; conditions: 200 μg/dose i.p., twice-weekly; for tumor growth inhibition: after 4 weeks
Method: FIG. 5. Treatment of mice bearing MDA-MB-468 xenografts with peptides BP1 or BP3. Mice were treated every 3-4 days with 200 ug BP as described in Methods. Tumor volume was measured 2×/week. *P<0.05 at days 10, 14, 17 and 24 (change in tumor volume (ANOVA)). FIG. 5A—tumors treated with binding peptide 1. FIG. 5B—tumors treated with binding peptide 3.
Mice bearing MDA-MB-468 xenografts (average tumor volume: 0.19 cm^3) were treated with i.p. injections of individual peptides (200 μg/dose) (FIG. 5). After 4 weeks of twice-weekly treatment, tumor growth was inhibited by 49% and 58% in mice treated with BP1 (FIG. 5A) or BP3 (FIG. 5B), respectively. The effect of BP3 on tumor growth was apparent after 2 weeks of treatment (FIG. 5B), whereas the inhibitory effect of BP1 was evident after one week (FIG. 5A). The average changes in individual tumor volumes during treatment with BP1 were significant (P<0.05) at days 10, 14, 17 and 24 (FIG. 5A). Treatment with BP2 was ineffective; tumors continued to grow at almost the same rate as the mock-treated controls (results not shown). BP4 treatment produced a 20% inhibition of tumor growth (results not shown).

[4] = system: MCF-7 human breast cancer cells; type: cell-based
Method: MTT (3-(4,5-dimethylthiazolyl-2)-2,5-diphenyltetrazolium bromide, Sigma) assays were performed under conditions of low serum (1%) to determine PlGF effects on cell viability, the toxicity of the peptides, and their effect on PlGF-mediated breast tumor cell growth (Mosmann, 1983, J Immunol Meth 65:55-63; Modrak et al., 2000, Biochem Biophys Res Commun 268:603-606). Peptide concentration was 1-2 μM, and the concentration of exogenous PlGF was 2 nM. The human breast tumor lines tested were: MDA-MB-231, MDA-MB-468 and MCF-7 (ATCC, Mannasses, Va.). Briefly, 96-well plates were seeded with 5-10×10^4 cells/ml in medium containing 1% fetal bovine serum (FBS). After 24 h, cells were treated with individual peptides at a concentration of 1-2 μM (4 binding peptides), in quadruplicate, and/or rhuPlGF at a 2-nM concentration. After the designated time points, 0.5 mg/ml MTT (5 mg/ml stock diluted 1:10 in RPMI medium with no serum) was added to the wells (Mosmann, 1983). When purple crystals were clearly visible in the cells, and the plate appeared to be fully developed, the reaction was terminated with acid alcohol (0.04M HCl in isopropanol). Absorbance of the dissolved crystals was read at 570 nm. The 24-h time point was chosen because the in vitro effects of PlGF on tumor cell migration were measurable at this time (see wound-healing assay below). These assays were also performed using medium with 10% FBS, with similar results.

MDA-MB-231 [5] = assay: Wound-healing (motility) assay, MDA-MB-231; type: cell-based, human
Method: (§3) MCF-7, MDA-MB-23 1, and MDA-MB-468 breast tumor cell lines or HECs were seeded onto sterile glass coverslips in Petri dishes or six-well plates. When the cells were 70-80% confluent, the monolayers were scratched with a sterile plastic pipet tip.
(§4) Inhibitor concentrations were 50 μM PD98059 (PD98) (mitogen activated protein kinase-kinase 1 [MEK1] inhibitor), 5 nM Wortmannin (phosphatidyl inositol 3 kinase [PI3K] inhibitor), or human recombinant soluble Flt-1 (sFlt-1) (R&D Systems). […] Cells were pre-incubated with PD98 and Wortmannin for 15-30 min before addition of PlGF. Stained (Wright-Giemsa) and mounted coverslips were examined microscopically. Five to ten 100× fields were evaluated by counting the number of cells separated from the wound edges and which appeared to be migrating toward the center of the wound. Results are reported as the average number of cells migrating into the wound/100× field. In some cases data from separate experiments were combined to accommodate inclusion of various treatments in the tables.
(§5) Antibody concentration was 1 μg/ml. MEK1 inhibitor, PD98059 (PD98), 50 μM. PI3K inhibitor, Wortmannin, 5 nM. […] Values for antibody and inhibitor treatments were from separate experiments which included all relevant controls. […] UT denotes untreated controls. *P<0.01 (ANOVA) compared to UT; † P<0.02 (ANOVA) compared to PlGF only. ‡ P<0.001 (ANOVA) compared to PlGF only.

MDA-MB-468 [6] = assay: Wound-healing (motility) assay, MDA-MB-468; type: cell-based, human
Method: as §3, §4, §5

[7] = system: microvessels in PlGF-containing Matrigel plugs; assay: Matrigel basement membrane plug angiogenesis assay; type: in vivo, nude mice
From the text: To further investigate the effect of PlGF binding peptides on endothelial cell migration and angiogenesis, Matrigel basement membrane plugs containing PlGF, BP1, BP2, or PBS were implanted s.c. on the flanks of nude mice. The number of interior microvessels in the PBS controls was 16.2±11.4/mm^2. PlGF-only implants contained 28.9±17.2/mm^2 (1.8-fold vs. mock-treated implants), and implants with PlGF and BP1 contained only 12.3±13.0 microvessels/mm^2 (P<0.02).

[8] = system: MDA-MB-468 human breast cancer cells; assay: MTT tumor cell viability assay, MDA-MB-468; type: cell-based; conditions: peptide 2 μM or PlGF 2 nM alone, 24 h
Method: as §2

MDA-MB-468 [9] = assay: Matrigel cell invasion assay, MDA-MB-468; type: cell-based, human; conditions: PlGF 0.2 nM ± peptide 2 μg/ml; 48 h
Method: (§6) Cellular invasion was determined by addition of 5×10^4cells to growth factor-reduced Matrigel invasion chambers (BD Biosciences Discovery Labware, Bedford, Mass.) (Taylor et al., 2003b; Passaniti et al., 1992, Lab Invest 67, 519-528). Additives to the Matrigel® plugs were pre-incubated together in a total volume of 100 μl PBS at RT for 10 min, after which each additive was added to the Matrigel. Growth factors (2.0 or 0.2 nM), peptide (2 μg/ml), or antibody (1 μg/ml) were added to cells in low serum (0.1% fetal bovine serum [FBS]) medium. Baseline and chemoattractant-based invasion (10% FBS) were included. The number of invading cells was determined by counting the number of cells on the bottom of the invasion chamber membrane after staining at 100× magnification after 24 h (MDA-MB-231) or 48 h (MCF-7, MDA-MB-468). The results of three to five separate experiments are presented.

MDA-MB-231 [10] = assay: Matrigel cell invasion assay, MDA-MB-231; type: cell-based, human; conditions: 24 h
Method: as §6

MCF-7 [11] = assay: Matrigel cell invasion assay, MCF-7; type: cell-based, human; conditions: PlGF 0.2 nM ± peptide 2 μg/ml; 48 h
Method: as §6

MCF-7 [12] = assay: Wound-healing (motility) assay, MCF-7; type: cell-based, human
Method: as §3, §4, §5

[13] = PlGF 2 nM ± test agent, relative to PlGF-only value
[14] = growth factor PlGF 2 nM ± test agent (Flt-1 2 nM, peptide 2 μM, antibody 1 μg/ml), 18-24 h

In the case of “QEAFNRLTSRMH (listed as Homo sapiens) [BP3]”, the “binding to PlGF (in words)” value (PlGF) is reported as “did not bind detectably”, the “effect on viability of PlGF-containing MDA-MB-231 cultures” value ([1]; PlGF 2 nM + peptide 1-2 μM, 1% serum) is reported as “significant reduction in cell viability” and the “binding to Flt-1 (in words)” value [2] is reported as “No measurable binding”. For the same molecule, the “effect on PlGF mediated angiogenesis in corneal tissues” value [3] was “inhibits”, the “duration of treatment after which effect on tumor growth was apparent” value (MDA-MB-468 xenografts) was 2 weeks and the tumor growth inhibition (MDA-MB-468 xenografts) was 58%. For the same molecule, the “effect on viability after 48 h, peptide alone” value ([4]; peptide alone, 48 h, vs untreated controls) was “lost viability”.

For “RMPYSEHSAPLG (listed as Homo sapiens) [BP4]”, the “binding to PlGF (in words)” value (PlGF) was “did not bind detectably”, the “binding to Flt-1 (in words)” value [2] was “No measurable binding” and the “effect on PlGF mediated angiogenesis in corneal tissues” value [3] was “inhibits”. The tumor growth inhibition (MDA-MB-468 xenografts) was 20% and the “effect on viability of PlGF-containing MCF-7 cultures” value ([4]; PlGF 2 nM + peptide 1-2 μM, 24 h, 1% serum) was “significant reduction in cell viability”.

B1: PlGF: recombinant human PlGF-2, placental growth factor (R&D Systems) (protein)
chain: LPAVPPQQWALSAGNGSSEVEVVPFQEVWGRSYCRALERLVDVVSEYPSEVEHMFSPSCVSLLRCTGCCGDENLHCVPVETANVTMQLLKIRSGDRPSYVELTFSQHVRCECRPLREKMKPERRRPKGRGKRRREKQRPTDCHLCGDAVPRR
B1 was tested, and the Relative activity (MDA-MB-231 [5]; [13]) was 100, the increase in motility (MDA-MB-231 [5]; exogenous PlGF) was 1.8-2.1 fold and the Migrating cells (MDA-MB-231 [5]; growth factor PlGF 2 nM ± test agent (Flt-1 2 nM, peptide 2 μM, antibody 1 μg/ml, PD98059 50 μM, Wortmannin 5 nM), 18-24 h) was 42.0 ± 13.3* cells/100× field. The “effect on cell viability / cell number, agent alone” value ([1]; peptide 2 μM or PlGF 2 nM alone) was “increased cell numbers”, the Relative activity (MDA-MB-468 [6]; [13]) was 100 and the “effect on motility (in words)” value (MDA-MB-468 [6]; exogenous PlGF) was “did not significantly affect”. The Migrating cells (MDA-MB-468 [6]; [14]) was 14.7 ± 9.8 cells/100× field, the “angiogenic response in cornea” value ([3]; micropellets with 100 ng PlGF) was “induces a strong angiogenic response” and the interior microvessels ([7]; PlGF-containing implants ± BP1, s.c., PBS controls 16.2±11.4) was 28.9±17.2 /mm^2. The “microvessels, fold vs. mock-treated implants” value ([7]; PlGF-only implants) was 1.8 fold, the “effect on cell viability / cell number, agent alone” value [8] was “increased cell numbers” and the “Average fold-change in the number of cells on the membrane compared to untreated controls” value (from here on “Average fold-change in the number”) (MDA-MB-468 [9]) was 1.8 ± 0.3 fold. The “Average fold-change in the number” value (MDA-MB-231 [10]; PlGF 0.2 nM ± peptide 2 μg/ml) was 4.0 ± 2.2 fold, the invading cells (MDA-MB-231 [10]; PlGF 0.2 nM) was 28±12 cells and the invading cells (MDA-MB-231 [10]; PlGF 2.0 nM) was 30±13.7 cells. The increased invasion (MDA-MB-231 [10]; PlGF at both 2.0 and 0.2 nM) was ~3 fold, the “Average fold-change in the number” value (MCF-7 [11]) was 2.1 ± 0.7 fold and the Relative activity (MCF-7 [12]; [13]) was 100. For the same molecule, the increase in motility (MCF-7 [12]; exogenous PlGF) was 1.8-2.1 fold and the Migrating cells (MCF-7 [12]; [14]) was 22.1 ± 13.4* cells/100× field.
